The assay has as its target T1, CSC (Vps26/Vps29-GFP/Vps35) (Saccharomyces cerevisiae, UniProt P40335).
T1 chain 1: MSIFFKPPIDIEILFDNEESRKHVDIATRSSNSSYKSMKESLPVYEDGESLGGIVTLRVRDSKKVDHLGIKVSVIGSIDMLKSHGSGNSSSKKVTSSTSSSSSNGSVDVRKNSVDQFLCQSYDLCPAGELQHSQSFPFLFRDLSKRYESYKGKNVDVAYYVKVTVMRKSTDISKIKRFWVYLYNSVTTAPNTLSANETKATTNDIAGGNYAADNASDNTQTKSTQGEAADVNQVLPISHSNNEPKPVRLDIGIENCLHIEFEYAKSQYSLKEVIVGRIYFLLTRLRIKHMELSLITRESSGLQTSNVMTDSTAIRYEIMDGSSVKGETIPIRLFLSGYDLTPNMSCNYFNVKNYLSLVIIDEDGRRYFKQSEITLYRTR
T1 chain 2: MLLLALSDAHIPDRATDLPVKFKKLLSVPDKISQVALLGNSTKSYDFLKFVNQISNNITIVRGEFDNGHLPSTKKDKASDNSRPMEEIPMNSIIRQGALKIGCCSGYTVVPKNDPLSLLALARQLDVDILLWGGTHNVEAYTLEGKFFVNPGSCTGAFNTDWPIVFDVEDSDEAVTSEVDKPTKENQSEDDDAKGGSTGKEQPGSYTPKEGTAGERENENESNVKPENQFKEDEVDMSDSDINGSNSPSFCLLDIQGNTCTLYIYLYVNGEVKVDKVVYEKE
T1 chain 3: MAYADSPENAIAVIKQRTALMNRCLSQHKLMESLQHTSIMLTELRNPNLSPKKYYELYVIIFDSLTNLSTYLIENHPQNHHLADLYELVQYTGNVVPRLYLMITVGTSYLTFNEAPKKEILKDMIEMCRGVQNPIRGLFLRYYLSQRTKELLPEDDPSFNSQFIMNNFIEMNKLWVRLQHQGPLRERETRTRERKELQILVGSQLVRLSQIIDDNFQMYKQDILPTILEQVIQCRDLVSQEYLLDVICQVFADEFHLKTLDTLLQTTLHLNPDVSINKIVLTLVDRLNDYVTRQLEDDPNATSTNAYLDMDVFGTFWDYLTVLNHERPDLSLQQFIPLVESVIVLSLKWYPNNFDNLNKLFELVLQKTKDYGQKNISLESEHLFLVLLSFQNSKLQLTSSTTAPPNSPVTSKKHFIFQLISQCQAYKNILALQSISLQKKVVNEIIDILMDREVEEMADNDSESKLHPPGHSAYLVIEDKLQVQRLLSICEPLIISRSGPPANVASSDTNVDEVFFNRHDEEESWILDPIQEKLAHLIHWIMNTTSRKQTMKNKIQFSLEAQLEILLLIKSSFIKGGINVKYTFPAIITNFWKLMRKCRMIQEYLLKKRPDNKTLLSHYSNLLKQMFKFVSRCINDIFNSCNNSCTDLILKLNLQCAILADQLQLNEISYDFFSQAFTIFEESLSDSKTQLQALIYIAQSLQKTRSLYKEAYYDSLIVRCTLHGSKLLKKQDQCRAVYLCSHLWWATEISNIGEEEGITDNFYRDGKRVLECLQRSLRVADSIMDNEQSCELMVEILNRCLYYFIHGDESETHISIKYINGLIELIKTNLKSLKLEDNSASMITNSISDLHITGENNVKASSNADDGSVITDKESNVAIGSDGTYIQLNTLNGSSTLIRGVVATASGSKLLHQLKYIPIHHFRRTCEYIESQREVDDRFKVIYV
The assay can be described thus: fluorescence titration (Vps29-GFP emission increase).

Among the data in paper PMC9108610 (2022) are Kd values, retold here.

B1: Atg18 (protein)
chain: MSDSSPTINFINFNQTGTCISLGTSKGFKIFNCEPFGKFYSEDSGGYAIVEMLFSTSLLALVGIGDQPALSPRRLRIINTKKHSIICEVTFPTSILSVKMNKSRLVVLLQEQIYIYDINTMRLLHTIETNPNPRGLMAMSPSVANSYLVYPSPPKVINSEIKAHATTNNITLSVGGNTETSFKRDQQDAGHSDISDLDQYSSFTKRDDADPTSSNGGNSSIIKNGDVIVFNLETLQPTMVIEAHKGEIAAMAISFDGTLMATASDKGTIIRVFDIETGDKIYQFRRGTYATRIYSISFSEDSQYLAVTGSSKTVHIFKLGHSMSNNKLDSDDSNMEEAAADDSSLDTTSIDALSDEENPTRLAREPYVDASRKTMGRMIRYSSQKLSRRAARTLGQIFPIKVTSLLESSRHFASLKLPVETNSHVMTISSIGSPIDIDTSEYPELFETGNSASTESYHEPVMKMVPIRVVSSDGYLYNFVMDPERGGDCLILSQYSILMD
Take B1: the Kd is around 50 nM.
